Results reported in IntAct's records for PubMed 29039417.

B1: Protein PTHB1 (Homo sapiens), Q3SYG4 (parent)
chain: MSLFKARDWWSTILGDKEEFDQGCLCLANVDNSGNGQDKIIVGSFMGYLRIFSPHPAKTGDGAQAEDLLLEVDLRDPVLQVEVGKFVSGTEMLHLAVLHSRKLCVYSVSGTLGNVEHGNQCQMKLMYEHNLQRTACNMTYGSFGGVKGRDLICIQSMDGMLMVFEQESYAFGRFLPGFLLPGPLAYSSRTDSFLTVSSCQQVESYKYQVLAFATDADKRQETEQQKLGSGKRLVVDWTLNIGEQALDICIVSFNQSASSVFVLGERNFFCLKDNGQIRFMKKLDWSPSCFLPYCSVSEGTINTLIGNHNNMLHIYQDVTLKWATQLPHIPVAVRVGCLHDLKGVIVTLSDDGHLQCSYLGTDPSLFQAPNVQSRELNYDELDVEMKELQKIIKDVNKSQGVWPMTEREDDLNVSVVVSPNFDSVSQATDVEVGTDLVPSVTVKVTLQNRVILQKAKLSVYVQPPLELTCDQFTFEFMTPDLTRTVSFSVYLKRSYTPSELEGNAVVSYSRPTDRNPDGIPRVIQCKFRLPLKLICLPGQPSKTASHKITIDTNKSPVSLLSLFPGFASQSDDDQVNVMGFHFLGGARITVLASKTSQRYRIQSEQFEDLWLITNELILRLQEYFEKQGVKDFACSFSGSIPLQEYFELIDHHFELRINGEKLEELLSERAVQFRAIQRRLLARFKDKTPAPLQHLDTLLDGTYKQVIALADAVEENQGNLFQSFTRLKSATHLVILLIALWQKLSADQVAILEAAFLPLQEDTQELGWEETVDAAISHLLKTCLSKSSKEQALNLNSQLNIPKDTSQLKKHITLLCDRLSKGGRLCLSTDAAAPQTMVMPGGCTTIPESDLEERSVEQDSTELFTNHRHLTAETPRPEVSPLQGVSE
partner: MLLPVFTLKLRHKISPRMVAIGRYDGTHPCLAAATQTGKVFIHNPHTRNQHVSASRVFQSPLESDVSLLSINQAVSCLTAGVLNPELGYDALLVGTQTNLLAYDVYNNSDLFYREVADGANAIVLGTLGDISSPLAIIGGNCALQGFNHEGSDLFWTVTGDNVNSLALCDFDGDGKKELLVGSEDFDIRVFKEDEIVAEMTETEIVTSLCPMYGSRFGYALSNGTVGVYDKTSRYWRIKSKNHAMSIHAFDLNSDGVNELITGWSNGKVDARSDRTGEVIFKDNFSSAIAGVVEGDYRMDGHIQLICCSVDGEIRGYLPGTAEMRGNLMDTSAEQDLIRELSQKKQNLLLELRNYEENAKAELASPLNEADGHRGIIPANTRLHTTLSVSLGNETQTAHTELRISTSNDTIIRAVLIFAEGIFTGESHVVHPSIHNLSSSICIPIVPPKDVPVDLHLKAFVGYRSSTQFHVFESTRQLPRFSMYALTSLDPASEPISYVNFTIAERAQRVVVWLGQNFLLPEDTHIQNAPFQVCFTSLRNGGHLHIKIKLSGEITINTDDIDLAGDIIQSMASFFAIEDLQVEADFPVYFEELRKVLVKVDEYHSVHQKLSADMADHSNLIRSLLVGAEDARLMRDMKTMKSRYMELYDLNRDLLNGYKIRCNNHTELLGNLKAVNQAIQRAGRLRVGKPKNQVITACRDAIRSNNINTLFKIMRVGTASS

Variants of: B1
Conditions: with bbs2_human BBS2, Q9BXC9

effect of a mutation on the interaction | Variant
with no effect | L720K
with no effect | L720E
with no effect | K704A
with no effect | S723K
disrupting interaction strength | S723P
with no effect | L695K
disrupting interaction strength | L695M
with no effect | L695E
with no effect | L727E
with no effect | T725E
with no effect | Q693E
with no effect | Q693K
with no effect | L736A
with no effect | F724E
with no effect | F724K
with no effect | F724A
with no effect | V713E
with no effect | I707A
with no effect | I707K
disrupting interaction strength | P691L
with no effect | K728A
with no effect | E715A
with no effect | I735A
with no effect | I735E

effect of a mutation on the interaction | Variant
with no effect | N719E
with no effect | A690K
disrupting interaction strength | W741G
disrupting interaction strength | W741A
disrupting interaction strength | W741R
with no effect | T731A
with no effect | T731K
with no effect | L733K
with no effect | A708K
with no effect | A708E
with no effect | T702E
with no effect | T702A
disrupting interaction strength | G718D
with no effect | T697E
with no effect | L699A
with no effect | S729E
with no effect | S729K
with no effect | L737E
with no effect | L737K
with no effect | L737A
with no effect | L740K
with no effect | L740A
with no effect | P689A
disrupting interaction strength | P689S

effect of a mutation on the interaction | Variant
with no effect | P689E
disrupting interaction strength | T688E
with no effect | R726E
with no effect | H732K
with no effect | Y703K
with no effect | Y703E
with no effect | Y703A
with no effect | L692A
with no effect | A712K
with no effect | A712E
with no effect | Q717K
with no effect | K687E
with no effect | L709E
with no effect | L709K
with no effect | L698E
disrupting interaction strength | H694S
disrupting interaction strength | H694Y
with no effect | D711A
with no effect | I738A
with no effect | A710K
with no effect | N716E
disrupting interaction strength | G701E
with no effect | G701K
with no effect | G701A

The remaining lines, values behind:

Variant | effect of a mutation on the interaction
L720A | with no effect
K704E | with no effect
S723E | with no effect
S723A | with no effect
L695A | with no effect
L727K | with no effect
L727A | with no effect
T725A | with no effect
T725K | with no effect
Q693A | with no effect
L736E | with no effect
L736K | with no effect
V713A | with no effect
V713K | with no effect
I707E | with no effect
P691E | with no effect
P691A | with no effect
P691S | disrupting interaction strength
P691K | with no effect
K728E | with no effect
E715K | with no effect
V734E | with no effect
V734A | with no effect
V734K | with no effect
I735K | with no effect
D686A | with no effect

Variant | effect of a mutation on the interaction
D686E | with no effect
D686K | with no effect
N719A | with no effect
N719K | with no effect
A690V | disrupting interaction strength
A690F | disrupting interaction strength
A690E | disrupting interaction strength
W741E | with no effect
W741L | disrupting interaction strength
W741K | with no effect
T731E | with no effect
A730K | with no effect
A730E | with no effect
L733E | with no effect
L733A | with no effect
A739K | with no effect
A739E | with no effect
T702K | with no effect
T702C | disrupting interaction strength
D700E | with no effect
D700A | with no effect
D700K | with no effect
G718A | with no effect
G718K | with no effect
G718E | with no effect
T697K | with no effect

Variant | effect of a mutation on the interaction
T697C | disrupting interaction strength
T697A | with no effect
L699E | with no effect
L699K | disrupting interaction strength
S729A | with no effect
L740E | with no effect
V706A | with no effect
V706K | with no effect
V706E | with no effect
P689K | with no effect
T688A | disrupting interaction strength
T688K | with no effect
R726A | with no effect
R726K | with no effect
D696E | with no effect
D696A | with no effect
D696K | with no effect
H732E | with no effect
H732A | with no effect
E714A | with no effect
E714K | with no effect
L692K | with no effect
L692E | with no effect
Q717E | with no effect
Q717A | with no effect
K687A | with no effect

Variant | effect of a mutation on the interaction
L709A | with no effect
Q722E | with no effect
Q722T | disrupting interaction strength
Q722K | with no effect
Q722A | with no effect
L698K | with no effect
L698A | with no effect
Q705K | with no effect
Q705M | disrupting interaction strength
Q705E | with no effect
Q705A | with no effect
H694A | with no effect
H694E | with no effect
H694K | with no effect
D711E | with no effect
D711K | with no effect
I738K | with no effect
I738E | with no effect
F721A | with no effect
F721K | with no effect
F721E | with no effect
A710E | with no effect
N716A | disrupting interaction strength
N716K | with no effect
K685E | with no effect

Variants of: B1
Conditions: with bbs2_human BBS2, Q9BXC9
Remark: another data set of the same source

effect of a mutation on the interaction | Variant
with no effect | W741A
